Reference: paper PMC13638050

Biological target: H1 stem (recombinant HA stem construct #4900 designed based on H1N1 A/Brisbane/59/2007 HA) (influenza A virus H1N1 A/Brisbane/59/2007)
Experiment: BLI

somatic CR9114 Fab
Kd: < 100 pM
